B1: RBM3 (protein, UniProt P98179 1-157, looked up)
RNA-binding protein 3: MSSEEGKLFVGGLNFNTDEQALEDHFSSFGPISEVVVVKDRETQRSRGFGFITFTNPEHASVAMRAMNGESLDGRQIRVDHAGKSARGTRGGGFGAHGRGRSYSRGGGDQGYGSGRYYDSRPGGYGYGYGRSRDYNGRNQGGYDRYSGGNYRDNYDN
B2: PFKL (protein, UniProt P17858 2-780, looked up)
ATP-dependent …: AAVDLEKLRASGAGKAIGVLTSGGDAQGMNAAVRAVTRMGIYVGAKVFLIYEGYEGLVEGGENIKQANWLSVSNIIQLGGTIIGSARCKAFTTREGRRAAAYNLVQHGITNLCVIGGDGSLTGANIFRSEWGSLLEELVAEGKISETTARTYSHLNIAGLVGSIDNDFCGTDMTIGTDSALHRIMEVIDAITTTAQSHQRTFVLEVMGRHCGYLALVSALASGADWLFIPEAPPEDGWENFMCERLGETRSRGSRLNIIIIAEGAIDRNGKPISSSYVKDLVVQRLGFDTRVTVLGHVQRGGTPSAFDRILSSKMGMEAVMALLEATPDTPACVVTLSGNQSVRLPLMECVQMTKEVQKAMDDKRFDEATQLRGGSFENNWNIYKLLAHQKPPKEKSNFSLAILNVGAPAAGMNAAVRSAVRTGISHGHTVYVVHDGFEGLAKGQVQEVGWHDVAGWLGRGGSMLGTKRTLPKGQLESIVENIRIYGIHALLVVGGFEAYEGVLQLVEARGRYEELCIVMCVIPATISNNVPGTDFSLGSDTAVNAAMESCDRIKQSASGTKRRVFIVETMGGYCGYLATVTGIAVGADAAYVFEDPFNIHDLKVNVEHMTEKMKTDIQRGLVLRNEKCHDYYTTEFLYNLYSSEGKGVFDCRTNVLGHLQQGGAPTPFDRNYGTKLGVKAMLWLSEKLREVYRKGRVFANAPDSACVIGLKKKAVAFSPVTELKKDTDFEHRMPREQWWLSLRLMLKMLAQYRISMAAYVSGELEHVTRRTLSMDKGF
B3: NCBP1 (protein, UniProt Q09161 1-790, looked up)
Nuclear cap-binding protein …: MSRRRHSDENDGGQPHKRRKTSDANETEDHLESLICKVGEKSACSLESNLEGLAGVLEADLPNYKSKILRLLCTVARLLPEKLTIYTTLVGLLNARNYNFGGEFVEAMIRQLKESLKANNYNEAVYLVRFLSDLVNCHVIAAPSMVAMFENFVSVTQEEDVPQVRRDWYVYAFLSSLPWVGKELYEKKDAEMDRIFANTESYLKRRQKTHVPMLQVWTADKPHPQEEYLDCLWAQIQKLKKDRWQERHILRPYLAFDSILCEALQHNLPPFTPPPHTEDSVYPMPRVIFRMFDYTDDPEGPVMPGSHSVERFVIEENLHCIIKSHWKERKTCAAQLVSYPGKNKIPLNYHIVEVIFAELFQLPAPPHIDVMYTTLLIELCKLQPGSLPQVLAQATEMLYMRLDTMNTTCVDRFINWFSHHLSNFQFRWSWEDWSDCLSQDPESPKPKFVREVLEKCMRLSYHQRILDIVPPTFSALCPANPTCIYKYGDESSNSLPGHSVALCLAVAFKSKATNDEIFSILKDVPNPNQDDDDDEGFSFNPLKIEVFVQTLLHLAAKSFSHSFSALAKFHEVFKTLAESDEGKLHVLRVMFEVWRNHPQMIAVLVDKMIRTQIVDCAAVANWIFSSELSRDFTRLFVWEILHSTIRKMNKHVLKIQKELEEAKEKLARQHKRRSDDDDRSSDRKDGVLEEQIERLQEKVESAQSEQKNLFLVIFQRFIMILTEHLVRCETDGTSVLTPWYKNCIERLQQIFLQHHQIIQQYMVTLENLLFTAELDPHILAVFQQFCALQA
B4: FAM83B (protein, UniProt Q5T0W9 1-1011, looked up)
Protein FAM83B: METSSMLSSLNDECKSDNYIEPHYKEWYRVAIDILIEHGLEAYQEFLVQERVSDFLAEEEINYILKNVQKVAQSTAHGTDDSCDDTLSSGTYWPVESDVEAPNLDLGWPYVMPGLLGGTHIDLLFHPPRAHLLTIKETIRKMIKEARKVIALVMDIFTDVDIFKEIVEASTRGVSVYILLDESNFNHFLNMTEKQGCSVQRLRNIRVRTVKGQDYLSKTGAKFHGKMEQKFLLVDCQKVMYGSYSYMWSFEKAHLSMVQIITGQLVESFDEEFRTLYARSCVPSSFAQEESARVKHGKALWENGTYQHSVSSLASVSSQRNLFGRQDKIHKLDSSYFKNRGIYTLNEHDKYNIRSHGYKPHFVPNFNGPNAIRQFQPNQINENWKRHSYAGEQPETVPYLLLNRALNRTNNPPGNWKKPSDSLSVASSSREGYVSHHNTPAQSFANRLAQRKTTNLADRNSNVRRSFNGTDNHIRFLQQRMPTLEHTTKSFLRNWRIESYLNDHSEATPDSNGSALGDRFEGYDNPENLKANALYTHSRLRSSLVFKPTLPEQKEVNSCTTGSSNSTIIGSQGSETPKEVPDTPTNVQHLTDKPLPESIPKLPLQSEAPKMHTLQVPENHSVALNQTTNGHTESNNYIYKTLGVNKQTENLKNQQTENLLKRRSFPLFDNSKANLDPGNSKHYVYSTLTRNRVRQPEKPKEDLLKSSKSMHNVTHNLEEDEEEVTKRNSPSGTTTKSVSIAALLDVNKEESNKELASKKEVKGSPSFLKKGSQKLRSLLSLTPDKKENLSKNKAPAFYRLCSSSDTLVSEGEENQKPKKSDTKVDSSPRRKHSSSSNSQGSIHKSKEDVTVSPSQEINAPPDENKRTPSPGPVESKFLERAGDASAPRFNTEQIQYRDSREINAVVTPERRPTSSPRPTSSELLRSHSTDRRVYSRFEPFCKIESSIQPTSNMPNTSINRPEIKSATMGNSYGRSSPLLNYNTGVYRSYQPNENKFRGFMQKFGNFIHKNK
B5: ERLIN1 (protein, UniProt O75477 1-348, looked up)
Erlin-1: MNMTQARVLVAAVVGLVAVLLYASIHKIEEGHLAVYYRGGALLTSPSGPGYHIMLPFITTFRSVQTTLQTDEVKNVPCGTSGGVMIYIDRIEVVNMLAPYAVFDIVRNYTADYDKTLIFNKIHHELNQFCSAHTLQEVYIELFDQIDENLKQALQKDLNLMAPGLTIQAVRVTKPKIPEAIRRNFELMEAEKTKLLIAAQKQKVVEKEAETERKKAVIEAEKIAQVAKIRFQQKVMEKETEKRISEIEDAAFLAREKAKADAEYYAAHKYATSNKHKLTPEYLELKKYQAIASNSKIYFGSNIPNMFVDSSCALKYSDIRTGRESSLPSKEALEPSGENVIQNKESTG
B6: PRSS56 (protein, UniProt P0CW18 20-603, looked up)
Serine protease 56: HPLYTRLPPSALQVLSAQGTQALQAAQRSAQWAINRVAMEIQHRSHECRGSGRPRPQALLQDPPEPGPCGERRPSTANVTRAHGRIVGGSAAPPGAWPWLVRLQLGGQPLCGGVLVAASWVLTAAHCFVGAPNELLWTVTLAEGSRGEQAEEVPVNRILPHPKFDPRTFHNDLALVQLWTPVSPGGSARPVCLPQEPQEPPAGTACAIAGWGALFEDGPEAEAVREARVPLLSTDTCRRALGPGLRPSTMLCAGYLAGGVDSCQGDSGGPLTCSEPGPRPREVLFGVTSWGDGCGEPGKPGVYTRVAVFKDWLQEQMSASSSREPSCRELLAWDPPQELQADAARLCAFYARLCPGSQGACARLAHQQCLQRRRRCELRSLAHTLLGLLRNAQELLGPRPGLRRLAPALALPAPALRESPLHPARELRLHSGSRAAGTRFPKRRPEPRGEANGCPGLEPLRQKLAALQGAHAWILQVPSEHLAMNFHEVLADLGSKTLTGLFRAWVRAGLGGRHVAFSGLVGLEPATLARSLPRLLVQALQAFRVAALAEGEPEGPWMDVGQGPGLERKGHHPLNPQVPPARQP

system: GFP-14-3-3β and its binding proteins; test: GFP-14-3-3β co-IP with LC-MS/MS label-free quantification, untreated versus PP1c-treated; design: species or system human; details: PP1 vs untreated; label-free quantification
Experimental: (§1) HeLa Kyoto cells expressing transiently transfected pEGFP(C1)-14-3-3β or pEGFP(C1) control plasmid, were incubated with 20 nM Calyculin A (# 9902 S, Cell Signaling Technology) for 12 min. Cells were washed twice on ice with cold PBS and after addition of 500 µL lysis buffer (100 mM NaCl, 10 mM Tris, 0.1% IGEPAL, 1 mM EDTA, 1 mM EGTA, 20 nM Calyculin A, 1x cOmplete Mini protease inhibitor cocktail (Sigma), 1 mM DTT, 1 mM MnCl2) cells were scraped from plates, lysed by 10 pushes through an injection needle (21 G, BD) and the insoluble fraction was pelleted by centrifugation (10 min, 10^4 rcf, 4 °C). Supernatants were then subjected to incubation with 1 µM recombinant phosphatase or buffer for 1 h at 30 °C. Next, we subjected samples to immunoprecipitation using α-GFP nanobodies covalently coupled to agarose beads (2 h, 4 °C, obtained from the EMBL PEPcore Core Facility). Beads were then washed three times with lysis buffer and samples were eluted in 1x LDS sample buffer (Thermo Fisher Scientific) by heating to 70 °C for 10 min.
(§2) The samples were then reduced with 25 mM dithiothreitol (10 min at 70 °C) and alkylated with 55 mM chloroacetamide (room temperature, 30 min, in the dark). Proteins were run on a precast 4–12% NuPAGE gel (ThermoFisher Scientific) for about 1 cm to concentrate the sample prior to in-gel tryptic digestion, which was performed according to the standard procedures. The peptides obtained were dried to completeness and resuspended in 12 µL of buffer A (0.1% FA), and 5 µL of sample were injected per MS measurement. The experiment was carried out in three independent replicates.
(§3) The samples were analyzed by LC-MS/MS on a Dionex Ultimate 3000 nano-HPLC coupled online to a Fusion Lumos Tribrid mass spectrometer (Thermo Fisher Scientific). Peptides were delivered to a trap column (75 µm × 2 cm, packed in-house with 5 µm C18 resin; Reprosil PUR AQ, Dr. Maisch) and washed using 0.1% FA at a flow rate of 5 µL/min for 10 min. Subsequently, peptides were transferred to an analytical column (75 µm × 45 cm, packed in-house with 3 µm C18 resin; Reprosil Gold) applying a flow rate of 300 nL/min and separated using a 60 min linear gradient from 4% to 32% LC solvent B (0.1% FA, 5% DMSO in ACN) in LC solvent A (0.1% FA in 5% DMSO). The eluate from the analytical column was sprayed via a stainless steel emitter (Thermo Fisher Scientific) at a source voltage of 2.1 kV into the mass spectrometer. The transfer capillary was heated to 275 °C. The Fusion Lumos was operated in positive ionization mode and data-dependent acquisition (DDA), automatically switching between MS1 and MS2 spectrum acquisition. Full scan MS1 spectra were recorded in the Orbitrap from 360 to 1300 m/z at a resolution of 60k (automatic gain control (AGC) target value of 4e5 charges, maximum injection time (maxIT) of 50 ms). Up to 20 peptide precursors were isolated (isolation window, 1.7 m/z; maximum injection time, 25 ms; and AGC value, 1e5), fragmented by high-energy collision-induced dissociation (HCD) using 30% normalized collision energy (NCE), and analyzed at a resolution of 15k in the Orbitrap. Precursor ions that were singly charged, unassigned, or with charge states >6+ were excluded. The dynamic exclusion duration of fragmented precursor ions was 20 s.
(§4) Peptide and protein identification and LFQ were performed using MaxQuant software (version 1.6.1.0)[64] by searching the data against all canonical protein sequences as annotated in the Swissprot reference database (human proteins only, 20193 entries, downloaded 22 March 2016, internally annotated with PFAM domains) using the embedded search engine Andromeda[65]. The MaxQuant search was performed using two variable modifications; oxidation of methionine and N-terminal protein acetylation. Carbamidomethylation on cysteines was specified as a fixed modification. Trypsin (Trypsin/P) was specified as the proteolytic enzyme with up to two allowed missed cleavage sites.

| Molecule | Difference (log2), PP1 vs untreated |
| --- | --- |
| B1 | 1.211 log2 |
| B2 | 1.256 log2 |
| B3 | 1.197 log2 |
| B4 | 1.224 log2 |
| B5 | 1.221 log2 |
| B6 | 1.257 log2 |

system: GFP-14-3-3β; test: GFP-14-3-3β co-IP with LC-MS/MS, untreated GFP-14-3-3β versus GFP control (14-3-3 interactome); format: binding, human; details: untreated vs GFP; label-free quantification
Experimental: as §1, §2, §3, §4

| Molecule | Difference (log2), untreated vs GFP |
| --- | --- |
| B1 | 0.8571 log2 |
| B2 | -0.3869 log2 |
| B3 | -0.001907 log2 |
| B4 | -0.8224 log2 |
| B5 | 0.5977 log2 |
| B6 | -0.4107 log2 |

Reference: article PMC7367873, “Dissecting the sequence determinants for dephosphorylation by the catalytic subunits of phosphatases PP1 and PP2A” (Nature Communications, 2020)
